# Source: patent US20220017623A1, “TREATMENT OF CANCER USING A CEA CD3 BISPECIFIC ANTIBODY AND A WNT SIGNALING INHIBITOR” (Hoffmann-La Roche Inc., priority 2019, published 2022)
# Where two headings read alike, the source gives them in different places.
# Assays:
# [1] = system: patient derived colorectal cancer organoids (PDOs); experiment: allogeneic CD8 T cell co-culture assay with patient derived colorectal cancer organoids, GFP confluence growth assessment; format: cell-based, human; details: 20 nM
# Method: In order to assess the sensitivity of patient-derived colorectal cancer organoids (PDOs) to cibisatamab immunotherapy, eight patient derived colorectal cancer organoid lines with various cell surface CEA expression levels were generated and treated with cibisatamab (20 nM) or an untargeted control antibody (20 nM) during 10 days of co-culture with allogeneic CD8 T cells. CD8 T cells were isolated from allogeneic healthy donor peripheral blood mononuclear cells (PBMCs) by magnetic bead sorting and expanded in vitro with IL2 and CD3/CD28 beads for 7-14 days. GFP-tagged CRC PDO cells were then seeded in 96 well plates, T cells were added the following day and the co-cultures were imaged every 2-3 days on an automated 96 well plate fluorescence microscope. […] Co-culture with CD8 T cells without any antibody was included as a further control to enable the identification of alloreactive donor T cells.
# Eight PDO lines were tested: three CEAhi PDOs (i.e. containing predominantly CEAhi cells; CRC-01, CRC-05, CRC-07), four PDOs with mixed CEA expression (i.e. containing large subpopulations of both CEAhi and CEAlo cells; CRC-02, CRC-03, CRC-04, CRC-08), and one CEAlo PDO (i.e. containing predominantly CEAlo cells; CRC-06).
# PDOs were harvested with TrypLE Express and neutralised with DMEM/F12 Ham medium (Sigma Aldrich) with 10% FBS. Cells were filtered through a 70 μm filter, counted and resuspended in phenol-red free RPMI medium (Thermo Fisher) supplemented with 10% FBS (Biosera), 1× Glutamax and 100 units penicillin-streptomycin. On day 0, 5000 tumor cells per well of a 96 well-plate (Corning Special Optics Microplate) were plated. CD8 T cells were added on day 1 at the indicated effector to target (E:T) ratios with 20 nM of cibisatamab or 20 nM of the untargeted negative control antibody DP47-TCB (both provided by Roche). Tumor cells without CD8 T cells and without antibody were also included as controls. All conditions were plated in triplicates and at least 3 different healthy donors were tested on each of the 8 PDOs.
# The GFP confluence was quantified every 48h-72h over a 10-day period using the GFP confluence application on the Celigo Imaging Cytometer (Nexcelom Bioscience). GFP confluence analysis was able to track the growth of GFP positive PDO cells over multiple timepoints without erroneously counting the T cells in the co-culture. […] The main advantage of confluence analysis over measuring spheroid diameters is the ability to track even the growth of PDOs showing highly variable shapes. Growth curves were generated with CD8 T cells from three different healthy blood donors. […]
# [2] = system: CEA expressing metastatic CRCs; details: cited from earlier work
molecule,measurement,setting,value
"cibisatamab (antibody, chains of the INN, looked up, V domains shown) VH: QVQLVQSGAEVKKPGASVKVSCKASGYTFTEFGMNWVRQAPGQGLEWMGWINTKTGEATYVEEFKGRVTFTTDTSTSTAYMELRSLRSDDTAVYYCARWDFAYYVEAMDYWGQGTTVTVSS VL: DIQMTQSPSSLSASVGDRVTITCKASAAVGTYVAWYQQKPGKAPKLLIYSASYRKRGVPSRFSGSGSGTDFTLTISSLQPEDFATYYCHQYYTYPLFTFGQGTKLEIK VH2: QVQLVQSGAEVKKPGASVKVSCKASGYTFTEFGMNWVRQAPGQGLEWMGWINTKTGEATYVEEFKGRVTFTTDTSTSTAYMELRSLRSDDTAVYYCARWDFAYYVEAMDYWGQGTTVTVSS VL2: QAVVTQEPSLTVSPGGTVTLTCGSSTGAVTTSNYANWVQEKPGQAFRGLIGGTNKRAPGTPARFSGSLLGGKAALTLSGAQPEDEAEYYCALWYSNLWVFGGGTKLTVL",growth inhibition,"[1]; CEAhi PDOs (CRC-01, CRC-05, CRC-07), CD8 T cells E:T 2:1, 7-10 days, versus DP47-TCB control",89-100%
same,reduction of the cancer cell growth rate compared to controls,"[1]; four PDOs with mixed CEA expression (CRC-02, CRC-03, CRC-04, CRC-08), E:T 2:1",only a moderate reduction of the cancer cell growth rate
same,sensitivity to treatment with CD8 T cells and antibody,"[1]; predominantly CEAlo PDO CRC-06, E:T 2:1",showed resistance
same,sensitivity to treatment with CD8 T cells and antibody,"[1]; three CEAhi PDOs, E:T 2:1",highly sensitive
same,patients with radiological shrinkage (antitumor activity),"[2]; in combination with PD-L1-inhibiting antibodies, 5/10 patients",50%
same,patients with radiological shrinkage (antitumor activity),"[2]; monotherapy, metastatic CRC after at least two prior chemotherapy regimens, 4/36 patients",11%
